For two substances, Kd results are on record in publication PMC2916881.

One experiment addresses human fibrinogen (human) (UniProt P02671). Put plainly: SPR; BIAcore 3000, CM5 chip; human prothrombin and human fibrinogen amine-linked, Coa or vWbp injected in HBS-P (20 mM HEPES pH 7.4, 150 mM NaCl, 0.005% P20), flow 2 uL/min; 1:1 binding model with drifting baseline and local Rmax (the legend of Figure S5 tells the opposite orientation). For orientation: In SPR one partner is held on a chip, and binding of the other changes the refractive index at the surface.

Experiment [1] has as its target human prothrombin (human). The description is as above.

UniProt P02671, sequence (P02671 36-866, chain 1 of 3): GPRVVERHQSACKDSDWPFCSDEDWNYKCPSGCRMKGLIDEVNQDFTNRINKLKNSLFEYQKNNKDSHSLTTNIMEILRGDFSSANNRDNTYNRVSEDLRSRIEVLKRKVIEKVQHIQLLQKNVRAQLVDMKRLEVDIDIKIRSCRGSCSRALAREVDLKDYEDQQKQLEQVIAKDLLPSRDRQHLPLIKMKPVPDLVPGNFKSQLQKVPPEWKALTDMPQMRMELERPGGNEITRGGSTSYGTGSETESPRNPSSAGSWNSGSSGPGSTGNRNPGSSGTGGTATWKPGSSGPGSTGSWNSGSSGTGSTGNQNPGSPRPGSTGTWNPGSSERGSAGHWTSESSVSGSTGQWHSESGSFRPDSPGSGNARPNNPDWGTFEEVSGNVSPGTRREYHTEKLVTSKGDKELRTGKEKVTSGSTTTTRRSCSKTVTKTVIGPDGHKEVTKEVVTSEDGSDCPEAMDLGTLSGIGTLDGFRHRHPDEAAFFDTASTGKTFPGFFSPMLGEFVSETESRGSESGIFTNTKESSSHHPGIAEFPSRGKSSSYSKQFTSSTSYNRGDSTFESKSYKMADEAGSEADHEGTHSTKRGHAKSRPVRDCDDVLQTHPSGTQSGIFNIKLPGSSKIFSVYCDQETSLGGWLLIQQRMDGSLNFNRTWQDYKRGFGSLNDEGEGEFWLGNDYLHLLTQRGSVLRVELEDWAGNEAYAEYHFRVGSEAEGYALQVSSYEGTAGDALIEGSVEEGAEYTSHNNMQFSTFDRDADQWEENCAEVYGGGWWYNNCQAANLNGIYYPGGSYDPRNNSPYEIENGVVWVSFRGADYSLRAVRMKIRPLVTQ
UniProt P02671, sequence (P02675 45-491, chain 2 of 3, further chain): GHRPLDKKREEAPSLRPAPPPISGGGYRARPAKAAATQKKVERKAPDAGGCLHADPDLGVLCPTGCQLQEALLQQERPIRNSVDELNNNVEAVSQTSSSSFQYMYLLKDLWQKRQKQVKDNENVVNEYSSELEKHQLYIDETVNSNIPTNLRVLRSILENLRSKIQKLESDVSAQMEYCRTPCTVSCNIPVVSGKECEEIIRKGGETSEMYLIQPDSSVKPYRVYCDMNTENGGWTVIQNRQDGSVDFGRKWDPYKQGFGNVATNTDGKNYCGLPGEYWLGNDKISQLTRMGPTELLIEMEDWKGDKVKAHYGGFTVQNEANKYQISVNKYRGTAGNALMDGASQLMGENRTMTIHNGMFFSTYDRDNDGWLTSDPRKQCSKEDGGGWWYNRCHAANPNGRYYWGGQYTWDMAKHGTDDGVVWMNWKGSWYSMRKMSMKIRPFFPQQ
UniProt P02671, sequence (P02679 27-453, chain 3 of 3, further chain): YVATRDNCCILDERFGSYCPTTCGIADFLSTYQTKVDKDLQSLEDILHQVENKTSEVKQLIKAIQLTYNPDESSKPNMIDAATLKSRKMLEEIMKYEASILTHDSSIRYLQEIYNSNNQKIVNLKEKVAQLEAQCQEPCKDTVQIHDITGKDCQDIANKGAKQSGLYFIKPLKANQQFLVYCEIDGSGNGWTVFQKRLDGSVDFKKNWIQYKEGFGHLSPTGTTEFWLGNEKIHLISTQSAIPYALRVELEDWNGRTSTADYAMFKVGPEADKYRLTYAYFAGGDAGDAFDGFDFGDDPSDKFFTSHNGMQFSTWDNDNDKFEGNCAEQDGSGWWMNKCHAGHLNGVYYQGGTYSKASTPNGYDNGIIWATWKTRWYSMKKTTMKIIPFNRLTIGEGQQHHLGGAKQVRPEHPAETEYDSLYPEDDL

As usually defined, the Kd is the free concentration of one partner at which half of the binding sites on the other are occupied at equilibrium, for simple one-to-one binding. A higher Kd goes with a looser complex. As for “S. aureus Newman von Willebrand factor binding protein (natural protein)”, the dissociation constant (Kd) with human fibrinogen (human) turned out to be 0.271 µM; in experiment [1], 0.098 µM.

As to “S. aureus Newman Coagulase (natural protein)”, the dissociation constant Kd with human fibrinogen (human) turned out to be 0.033 µM; in experiment [1], 0.005 µM.
